According to paper PMC5382266 (Nature Communications, 2017):

Experiments:
[1] = target: T1, full-length FLAG-tagged human TSLPR (human, UniProt Q9HC73-1 23-371); test: cell-based or functional assay
T1 sequence (looked up): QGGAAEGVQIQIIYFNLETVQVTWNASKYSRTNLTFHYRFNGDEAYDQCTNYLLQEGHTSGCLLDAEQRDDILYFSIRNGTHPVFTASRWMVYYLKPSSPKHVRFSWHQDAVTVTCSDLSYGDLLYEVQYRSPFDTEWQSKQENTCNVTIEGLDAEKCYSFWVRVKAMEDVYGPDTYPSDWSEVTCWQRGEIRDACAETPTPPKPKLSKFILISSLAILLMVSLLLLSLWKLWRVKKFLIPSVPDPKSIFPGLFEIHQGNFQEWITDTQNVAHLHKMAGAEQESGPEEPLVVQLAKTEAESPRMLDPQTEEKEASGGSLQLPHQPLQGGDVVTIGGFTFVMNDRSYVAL

[2] = target: T2, full-length HA-tagged human IL-7Rα (human, UniProt P16871-1 21-459)
T2 sequence (looked up): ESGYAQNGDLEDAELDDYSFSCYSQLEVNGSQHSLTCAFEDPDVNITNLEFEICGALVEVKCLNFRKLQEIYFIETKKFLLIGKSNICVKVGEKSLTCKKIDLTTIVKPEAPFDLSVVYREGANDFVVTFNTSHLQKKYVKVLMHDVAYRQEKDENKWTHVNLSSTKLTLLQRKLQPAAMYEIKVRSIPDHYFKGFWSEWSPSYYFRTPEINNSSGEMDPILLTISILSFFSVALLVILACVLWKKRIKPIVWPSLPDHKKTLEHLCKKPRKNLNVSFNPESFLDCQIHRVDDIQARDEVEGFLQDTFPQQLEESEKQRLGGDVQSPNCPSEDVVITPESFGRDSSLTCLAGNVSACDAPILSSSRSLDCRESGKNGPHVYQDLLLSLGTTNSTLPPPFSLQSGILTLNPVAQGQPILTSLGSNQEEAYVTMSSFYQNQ

B1: TSLP-Arg149Ser (ligand, human, UniProt Q969D9-1 29-159, looked up)
chain: YDFTNCDFEKIKAAYLSTISKDLITYMSGTKSTEFNNTVSCSNRPHCLTEIQSLTFNPTAGCASLAKEMFAMKTKAALAIWCPGYSETQINATQAMKKARKSKVTTNKCLEQVSQLQGLWSRFNRPLLKQQ
B1 was tested, and the “EC50 of STAT5 activity (luciferase reporter) induced by TSLP in HEK293T cells expressing WT TSLPR and IL-7Rα” value (from here on “EC50 of STAT5 activity”) [1] was 0.0028 nM.

B2: TSLP-Arg150Ser (ligand, human, UniProt Q969D9-1 29-159, looked up)
chain: YDFTNCDFEKIKAAYLSTISKDLITYMSGTKSTEFNNTVSCSNRPHCLTEIQSLTFNPTAGCASLAKEMFAMKTKAALAIWCPGYSETQINATQAMKKARKSKVTTNKCLEQVSQLQGLWRSFNRPLLKQQ
B2 was tested, and the “EC50 of STAT5 activity” value [1] was 0.0095 nM.

B3: TSLP-Arg153Ser (ligand, human, UniProt Q969D9-1 29-159, looked up)
chain: YDFTNCDFEKIKAAYLSTISKDLITYMSGTKSTEFNNTVSCSNRPHCLTEIQSLTFNPTAGCASLAKEMFAMKTKAALAIWCPGYSETQINATQAMKKARKSKVTTNKCLEQVSQLQGLWRRFNSPLLKQQ
B3 was tested, and the “EC50 of STAT5 activity” value [1] was 0.019 nM.

B4: TSLP-Arg149Ser/Arg150Ser (ligand, human, UniProt Q969D9-1 29-159, looked up)
chain: YDFTNCDFEKIKAAYLSTISKDLITYMSGTKSTEFNNTVSCSNRPHCLTEIQSLTFNPTAGCASLAKEMFAMKTKAALAIWCPGYSETQINATQAMKKARKSKVTTNKCLEQVSQLQGLWSSFNRPLLKQQ
With B4 the “EC50 of STAT5 activity” value [1] was 0.1 nM.

B5: TSLPR-Asp157Ala/Glu159Ala (receptor)
chain: QGGAAEGVQIQIIYFNLETVQVTWNASKYSRTNLTFHYRFNGDEAYDQCTNYLLQEGHTSGCLLDAEQRDDILYFSIRNGTHPVFTASRWMVYYLKPSSPKHVRFSWHQDAVTVTCSDLSYGDLLYEVQYRSPFATAWQSKQENTCNVTIEGLDAEKCYSFWVRVKAMEDVYGPDTYPSDWSEVTCWQRGEIRDACAETPTPPKPKLSKFILISSLAILLMVSLLLLSLWKLWRVKKFLIPSVPDPKSIFPGLFEIHQGNFQEWITDTQNVAHLHKMAGAEQESGPEEPLVVQLAKTEAESPRMLDPQTEEKEASGGSLQLPHQPLQGGDVVTIGGFTFVMNDRSYVAL
For B5, the EC50 of TSLP-induced STAT5 activity in cells expressing mutant TSLPR and IL-7Rα [2] was 0.085 nM.

B6: TSLPR-Asp176Ala/Glu178Ala/Lys179Ala (receptor)
chain: QGGAAEGVQIQIIYFNLETVQVTWNASKYSRTNLTFHYRFNGDEAYDQCTNYLLQEGHTSGCLLDAEQRDDILYFSIRNGTHPVFTASRWMVYYLKPSSPKHVRFSWHQDAVTVTCSDLSYGDLLYEVQYRSPFDTEWQSKQENTCNVTIEGLAAAACYSFWVRVKAMEDVYGPDTYPSDWSEVTCWQRGEIRDACAETPTPPKPKLSKFILISSLAILLMVSLLLLSLWKLWRVKKFLIPSVPDPKSIFPGLFEIHQGNFQEWITDTQNVAHLHKMAGAEQESGPEEPLVVQLAKTEAESPRMLDPQTEEKEASGGSLQLPHQPLQGGDVVTIGGFTFVMNDRSYVAL
B6 gave an EC50 of TSLP-induced STAT5 activity in cells expressing mutant TSLPR and IL-7Rα [2] of 0.049 nM.

B7: TSLPR-Phe156Ala/Asp157Ala/Glu159Ala (receptor)
chain: QGGAAEGVQIQIIYFNLETVQVTWNASKYSRTNLTFHYRFNGDEAYDQCTNYLLQEGHTSGCLLDAEQRDDILYFSIRNGTHPVFTASRWMVYYLKPSSPKHVRFSWHQDAVTVTCSDLSYGDLLYEVQYRSPAATAWQSKQENTCNVTIEGLDAEKCYSFWVRVKAMEDVYGPDTYPSDWSEVTCWQRGEIRDACAETPTPPKPKLSKFILISSLAILLMVSLLLLSLWKLWRVKKFLIPSVPDPKSIFPGLFEIHQGNFQEWITDTQNVAHLHKMAGAEQESGPEEPLVVQLAKTEAESPRMLDPQTEEKEASGGSLQLPHQPLQGGDVVTIGGFTFVMNDRSYVAL
B7 was tested, and the EC50 of TSLP-induced STAT5 activity in cells expressing mutant TSLPR and IL-7Rα [2] was 0.4 nM.
